Measurements published in publication PMC7458321.

Biological target: GST F52(pBPa)
Experiment: cross-linking; photocrosslinking through pBPa in whole N. meningitidis cells, UV light for the indicated times up to 2 hours; bacterial extracts on Western blot with anti-GST mAb

Sequence of GST F52(pBPa) (P08515 2-218): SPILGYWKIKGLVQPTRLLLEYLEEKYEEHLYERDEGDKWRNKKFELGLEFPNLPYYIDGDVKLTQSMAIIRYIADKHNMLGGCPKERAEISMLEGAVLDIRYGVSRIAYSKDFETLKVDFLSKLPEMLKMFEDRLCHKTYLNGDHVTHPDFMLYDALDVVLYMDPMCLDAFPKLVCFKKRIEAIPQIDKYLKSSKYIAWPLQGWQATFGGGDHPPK

- stoichiometry N: 2
Substance: GST F52(pBPa) (enzyme)
